B1: 20K human growth hormone (ATGen Inc.) (ligand)
chain: FPTIPLSRLFDNAMLRAHRLHQLAFDTYQEFNPQTSLCFSESIPTPSNREETQQKSNLELLRISLLLIQSWLEPVQFLRSVFANSLVYGASDSNVYDLLKDLEEGIQTLMGRLEDGSPRTGQIFKQTYSKFDTNSHNDDALLKNYGLLYCFRKDMDKVETFLRIVQCRSVEGSCGF
B2: recombinant human growth hormone binding protein (rhGHBP, BioVision Inc.) (receptor, UniProt P10912 19-264, looked up)
chain: FSGSEATAAILSRAPWSLQSVNPGLKTNSSKEPKFTKCRSPERETFSCHWTDEVHHGTKNLGPIQLFYTRRNTQEWTQEWKECPDYVSAGENSCYFNSSFTSIWIPYCIKLTSNGGTVDEKCFSVDEIVQPDPPIALNWTLLNVSLTGIHADIQVRWEAPRNADIQKGWMVLEYELQYKEVNETKWKMMDPILTTSVPVYSLKVDKEYEVRVRSKQRNSGNYGEFSEVLYVTLPQMSQFTCEEDFY

What was measured:
Assay in all cases: cell-based or functional assay
[1] = target: T1, human prolactin receptor (hPRLR) expressed on mouse BaF3 cells (BaF3/hPRLR cells) (human, UniProt P16471 25-622)
T1 sequence (looked up): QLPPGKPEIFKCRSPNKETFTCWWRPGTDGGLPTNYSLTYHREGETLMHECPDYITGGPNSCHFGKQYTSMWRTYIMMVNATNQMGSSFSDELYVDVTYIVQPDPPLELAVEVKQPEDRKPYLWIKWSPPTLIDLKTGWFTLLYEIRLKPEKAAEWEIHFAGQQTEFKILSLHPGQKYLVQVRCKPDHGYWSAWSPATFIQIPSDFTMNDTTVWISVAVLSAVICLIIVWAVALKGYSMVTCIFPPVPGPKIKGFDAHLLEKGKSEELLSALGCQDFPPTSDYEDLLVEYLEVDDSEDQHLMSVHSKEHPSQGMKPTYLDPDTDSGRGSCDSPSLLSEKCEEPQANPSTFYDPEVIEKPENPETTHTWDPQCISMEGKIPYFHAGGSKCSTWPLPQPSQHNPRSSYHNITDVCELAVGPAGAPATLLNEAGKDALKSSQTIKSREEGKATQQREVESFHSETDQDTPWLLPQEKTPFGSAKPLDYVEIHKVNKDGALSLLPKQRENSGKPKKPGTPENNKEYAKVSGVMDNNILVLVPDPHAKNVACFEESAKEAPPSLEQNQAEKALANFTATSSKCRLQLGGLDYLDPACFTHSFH

[2] = target: T2, human GH receptor (hGHR) expressed on mouse BaF3 cells (BaF3/hGHR cells) (human, UniProt P10912 19-638)
T2 sequence (looked up): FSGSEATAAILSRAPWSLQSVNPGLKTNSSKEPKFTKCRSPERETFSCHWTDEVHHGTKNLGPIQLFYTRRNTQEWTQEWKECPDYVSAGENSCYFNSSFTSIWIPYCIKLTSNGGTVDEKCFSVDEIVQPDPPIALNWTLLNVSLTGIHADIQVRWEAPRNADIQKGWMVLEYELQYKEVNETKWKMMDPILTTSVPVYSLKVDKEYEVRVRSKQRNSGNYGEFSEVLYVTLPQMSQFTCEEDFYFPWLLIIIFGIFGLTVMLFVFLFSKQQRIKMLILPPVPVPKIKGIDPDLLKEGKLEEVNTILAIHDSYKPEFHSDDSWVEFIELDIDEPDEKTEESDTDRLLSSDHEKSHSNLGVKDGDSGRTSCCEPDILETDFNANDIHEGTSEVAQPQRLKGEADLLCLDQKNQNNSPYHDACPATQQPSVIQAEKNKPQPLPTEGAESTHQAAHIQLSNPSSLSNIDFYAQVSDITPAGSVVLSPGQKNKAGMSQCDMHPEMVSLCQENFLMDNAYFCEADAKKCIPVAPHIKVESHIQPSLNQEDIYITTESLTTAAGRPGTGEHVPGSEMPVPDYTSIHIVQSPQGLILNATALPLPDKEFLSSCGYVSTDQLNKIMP

HSA-[linker]-20K hGH = HSA-[linker]-20K hGH (human)
HSA-20K hGH = HSA-20K hGH (human)

Binder	EC50 (row printed as ED50), prolactin-like activity using BaF3/hPRLR cells [1]	EC50 (row printed as ED50), cell growth activity using BaF3/hGHR cells [2]	IC50 of hGHBP against cell growth activity on BaF3/hGHR cells (by extrapolation) (HSA-[linker]-20K hGH)	IC50 of hGHBP against cell growth activity on BaF3/hGHR cells (by extrapolation) (HSA-20K hGH)
B1	0.27 nM	0.00084 nM		
B2			250 to 350 nM	250 to 350 nM
